Tests used:
[1] = target: T1, HilD (Salmonella enterica serovar Typhimurium, UniProt P0CL08 1-309); test: EMSA; no C26; conditions: protein: recombinant; tags: His6-SUMO removed by SUMO protease; chain copies: 2; label: 5'-Cy5 on strand 1; blunt
T1 sequence: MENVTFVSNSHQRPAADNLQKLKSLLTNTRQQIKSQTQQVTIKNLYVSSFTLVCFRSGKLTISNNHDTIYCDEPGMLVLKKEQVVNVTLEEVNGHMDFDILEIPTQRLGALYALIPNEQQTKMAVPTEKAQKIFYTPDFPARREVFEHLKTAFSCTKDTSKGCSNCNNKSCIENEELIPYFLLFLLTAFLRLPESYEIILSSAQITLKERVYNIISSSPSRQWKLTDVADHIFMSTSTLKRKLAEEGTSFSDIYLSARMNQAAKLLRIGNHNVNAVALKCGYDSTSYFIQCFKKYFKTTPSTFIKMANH

[2] = target: T2, HilC (Salmonella enterica serovar Typhimurium, UniProt E1WAB2 1-295); test: EMSA; no C26; conditions: protein: recombinant; tags: N-terminal His6-TEV, cleaved by TEV protease; chain copies: 2; label: 5'-Cy5 on strand 1; blunt
T2 sequence: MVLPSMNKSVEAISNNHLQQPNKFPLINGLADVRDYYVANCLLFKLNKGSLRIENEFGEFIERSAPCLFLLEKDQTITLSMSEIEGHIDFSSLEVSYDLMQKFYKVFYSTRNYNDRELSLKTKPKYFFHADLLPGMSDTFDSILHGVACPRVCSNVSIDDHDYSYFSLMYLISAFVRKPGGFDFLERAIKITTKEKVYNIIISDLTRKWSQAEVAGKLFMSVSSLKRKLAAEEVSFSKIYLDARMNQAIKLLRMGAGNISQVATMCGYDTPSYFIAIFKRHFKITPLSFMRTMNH

[3] = target: HilD Y212A (Salmonella enterica serovar Typhimurium, UniProt P0CL08 1-309, Y212A); test: EMSA; no C26; affinity comparable to WT; conditions: protein: recombinant; tags: His6-SUMO removed by SUMO protease; chain copies: 2; label: 5'-Cy5 on strand 1; blunt
[4] = target: HilD L45A (Salmonella enterica serovar Typhimurium, UniProt P0CL08 1-309, L45A); test: EMSA; no C26; affinity comparable to WT; conditions: protein: recombinant; tags: His6-SUMO removed by SUMO protease; chain copies: 2; label: 5'-Cy5 on strand 1; blunt
[5] = target: HilD I100A (Salmonella enterica serovar Typhimurium, UniProt P0CL08 1-309, I100A); test: EMSA; no C26; affinity comparable to WT; conditions: protein: recombinant; tags: His6-SUMO removed by SUMO protease; chain copies: 2; label: 5'-Cy5 on strand 1; blunt
[6] = target: HilD Y46A (Salmonella enterica serovar Typhimurium, UniProt P0CL08 1-309, Y46A); test: EMSA; no C26; affinity comparable to WT; conditions: protein: recombinant; tags: His6-SUMO removed by SUMO protease; chain copies: 2; label: 5'-Cy5 on strand 1; blunt

Measured: binding result

B1: PhilA A1 62 bp (dsDNA)
DNA 1: GGGAGTAAAGAAAAGACGATATCATTATTTTGCAAAAAAATATAAAAATAAGCGCACCATTA
DNA 2: TAATGGTGCGCTTATTTTTATATTTTTTTGCAAAATAATGATATCGTCTTTTCTTTACTCCC
binds: [1] | [2] | [3] | [4] | [5] | [6]

— publication PMC11988454, “Discovery of synthetic small molecules targeting the central regulator of Salmonella pathogenicity” (Science Advances, 2025)
